Test [1] has as its target T1, GST-PUB30 (Arabidopsis thaliana, UniProt Q058P4 1-448).
T1 construct: Plant U-box ubiquitin E3 ligase PUB30, Arabidopsis, full length
T1 sequence (looked up): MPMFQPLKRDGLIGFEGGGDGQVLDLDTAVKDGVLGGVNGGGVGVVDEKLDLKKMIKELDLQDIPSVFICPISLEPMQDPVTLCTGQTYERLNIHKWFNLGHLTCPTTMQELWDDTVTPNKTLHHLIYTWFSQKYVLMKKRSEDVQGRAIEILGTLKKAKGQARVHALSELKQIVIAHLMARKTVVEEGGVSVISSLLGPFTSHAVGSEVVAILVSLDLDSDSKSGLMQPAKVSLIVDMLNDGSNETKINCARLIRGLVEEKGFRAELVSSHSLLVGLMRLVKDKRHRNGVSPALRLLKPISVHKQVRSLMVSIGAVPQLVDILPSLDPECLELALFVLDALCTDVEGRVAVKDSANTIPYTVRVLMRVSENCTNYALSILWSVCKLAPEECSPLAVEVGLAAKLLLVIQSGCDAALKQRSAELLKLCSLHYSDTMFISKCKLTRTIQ
The experiment in a line: BLI; Octet Red96; GST-PUB30 or GST-PUB31 loaded on anti-GST probes (2000 nM for ERECTA_CD, 1000 nM for BAK1_CD); ERECTA_CD or BAK1_CD as analyte at seven concentrations; 30 °C; 1x PBS with 0.02 % Tween 20; 1:1 model, steady-state analysis. The settings on record: both partners purified.

The target in test [2] is T2, GST-PUB31 (Arabidopsis thaliana, UniProt Q9FHN9 1-444).
T2 construct: Plant U-box ubiquitin E3 ligase PUB31, Arabidopsis, full length
T2 sequence (looked up): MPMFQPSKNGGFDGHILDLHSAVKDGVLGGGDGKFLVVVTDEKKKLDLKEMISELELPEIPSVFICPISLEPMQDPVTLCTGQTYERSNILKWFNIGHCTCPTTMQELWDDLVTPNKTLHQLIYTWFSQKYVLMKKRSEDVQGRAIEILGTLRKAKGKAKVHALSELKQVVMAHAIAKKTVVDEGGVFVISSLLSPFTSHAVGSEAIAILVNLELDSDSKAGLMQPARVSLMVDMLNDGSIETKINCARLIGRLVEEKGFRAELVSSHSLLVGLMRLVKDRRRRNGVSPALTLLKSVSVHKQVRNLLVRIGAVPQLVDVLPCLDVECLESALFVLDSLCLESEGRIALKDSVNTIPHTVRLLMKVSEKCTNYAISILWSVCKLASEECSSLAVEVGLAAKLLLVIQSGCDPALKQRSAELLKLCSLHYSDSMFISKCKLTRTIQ
Described as above. The settings on record: both partners purified.

The target of test [3] is T3, GST-PUB30 (Arabidopsis thaliana, UniProt Q058P4 1-448).
T3 chain: T1 sequence (looked up)
The experiment in a line: BLI.

The target in test [4] is T4, GST-PUB31 (Arabidopsis thaliana, UniProt Q9FHN9 1-444).
T4 chain: T2 sequence (looked up)
Description: BLI.

Test [5] concerns the target T3, GST-PUB30. The experiment in a line: BLI.
Test [6] deals with T4, GST-PUB31. Description: BLI.

Where two headings read alike, the source gives them in different places.

B1: MBP-BAK1_CD (domain or fragment, Arabidopsis thaliana, UniProt Q94F62 247-615, looked up)
chain: AWWRRKKPQDHFFDVPAEEDPEVHLGQLKRFSLRELQVASDNFSNKNILGRGGFGKVYKGRLADGTLVAVKRLKEERTQGGELQFQTEVEMISMAVHRNLLRLRGFCMTPTERLLVYPYMANGSVASCLRERPESQPPLDWPKRQRIALGSARGLAYLHDHCDPKIIHRDVKAANILLDEEFEAVVGDFGLAKLMDYKDTHVTTAVRGTIGHIAPEYLSTGKSSEKTDVFGYGVMLLELITGQRAFDLARLANDDDVMLLDWVKGLLKEKKLEALVDVDLQGNYKDEEVEQLIQVALLCTQSSPMERPKMSEVVRMLEGDGLAERWEEWQKEEMFRQDFNYPTHHPAVSGWIIGDSTSQIENEYPSGPR
notes: BRI1-ASSOCIATED RECEPTOR KINASE1 (BAK1/SERK3), Arabidopsis; cytoplasmic domain
On to B1, for which the “fold stronger interaction than ERECTA_CD” value in the test with GST-PUB30 [1] and with GST-PUB31 [2] was around 10 fold in each case. Besides, the Kd in the test with GST-PUB30 [3] worked out at 2.4 µM; in the test with GST-PUB31 [4] it was 2 µM.

B2: MBP-ERECTA_CD (domain or fragment)
chain: CRPHNPPPFLDGSLDKPVTYSTPKLVILHMNMALHVYEDIMRMTENLSEKYIIGHGASSTVYKCVLKNCKPVAIKRLYSHNPQSMKQFETELEMLSSIKHRNLVSLQAYSLSHLGSLLFYDYLENGSLWDLLHGPTKKKTLDWDTRLKIAYGAAQGLAYLHHDCSPRIIHRDVKSSNILLDKDLEARLTDFGIAKSLCVSKSHTSTYVMGTIGYIDPEYARTSRLTEKSDVYSYGIVLLELLTRRKAVDDESNLHHLIMSKTGNNEVMEMADPDITSTCKDLGVVKKVFQLALLCTKRQPNDRPTMHQVTRVLGSFMLSEQPPAATDTSATLAGSCYVDEYANLKTPHSVNCSSMSASDAQLFLRFGQVISQNSE
Turning to B2, the Kd with GST-PUB30 [5] worked out at 15 µM; with GST-PUB31 [6], 11 µM.

These data come from article doi:10.1101/2022.07.11.499617, “Direct attenuation of Arabidopsis ERECTA signaling by a pair of U-box E3 ligases” (bioRxiv, 2022).
